This assay concerns the target Neurabin (Nrb), endogenous in rat cortical neurons (rat (endogenous in primary cortical neurons)) (UniProt O35867). Kind of assay: co-IP.

The values that follow come from paper PMC6066450.

Chain of UniProt O35867 (O35867 whole entry): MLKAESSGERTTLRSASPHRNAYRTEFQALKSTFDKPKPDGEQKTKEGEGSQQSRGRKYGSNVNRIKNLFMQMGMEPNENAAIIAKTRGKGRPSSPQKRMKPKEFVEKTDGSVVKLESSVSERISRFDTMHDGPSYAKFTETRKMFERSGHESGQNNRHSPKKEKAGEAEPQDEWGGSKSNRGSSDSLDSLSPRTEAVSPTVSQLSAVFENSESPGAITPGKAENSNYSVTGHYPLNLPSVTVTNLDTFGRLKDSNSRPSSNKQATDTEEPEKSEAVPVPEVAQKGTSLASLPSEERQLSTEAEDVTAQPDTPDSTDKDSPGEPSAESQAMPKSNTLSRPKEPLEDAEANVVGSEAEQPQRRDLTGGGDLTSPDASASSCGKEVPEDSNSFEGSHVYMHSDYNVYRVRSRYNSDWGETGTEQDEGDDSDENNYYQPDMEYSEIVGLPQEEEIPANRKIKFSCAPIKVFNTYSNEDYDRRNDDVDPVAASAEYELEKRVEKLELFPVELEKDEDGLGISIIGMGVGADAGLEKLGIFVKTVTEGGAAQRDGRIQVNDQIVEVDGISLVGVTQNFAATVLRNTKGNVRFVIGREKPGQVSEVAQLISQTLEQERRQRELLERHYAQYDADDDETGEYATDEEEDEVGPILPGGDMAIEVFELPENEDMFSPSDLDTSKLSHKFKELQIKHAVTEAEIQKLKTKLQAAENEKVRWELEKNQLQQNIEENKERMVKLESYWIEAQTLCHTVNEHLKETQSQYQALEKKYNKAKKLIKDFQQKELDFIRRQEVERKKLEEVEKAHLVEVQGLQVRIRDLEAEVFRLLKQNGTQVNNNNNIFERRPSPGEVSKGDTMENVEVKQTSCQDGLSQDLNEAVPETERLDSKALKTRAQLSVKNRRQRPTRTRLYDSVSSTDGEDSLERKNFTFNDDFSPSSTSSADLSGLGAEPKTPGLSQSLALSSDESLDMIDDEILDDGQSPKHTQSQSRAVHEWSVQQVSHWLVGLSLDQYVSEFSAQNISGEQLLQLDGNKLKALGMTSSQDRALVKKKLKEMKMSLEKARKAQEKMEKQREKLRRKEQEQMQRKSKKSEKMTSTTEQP

In turn, “Protein phosphatase-1 (PP1), endogenous in rat cortical neurons (from UniProt P62138 1-330) (enzyme)” had a PP1 co-IPed with Nrb after forskolin, percent of no forskolin control of 62.8%.
